How the values were obtained:
Experiment in all cases: luciferase-based plate binding assay; supernatant (100 uL/well) with E2-16Fc or a mutant form held on protein A-coated 96-well plates, room temperature, 1 h; PBS-T wash; CD81-Luc supernatant (2.5x10^6 units of luciferase activity in 30 uL) added for 1 h, with or without 1H8 (10 or 50 ug/reaction); PBS-T rinse; bound luciferase activity read
Settings in all cases: partners not purified
[1] = molecular target: T1, E2-16Fc T526A (Hepatitis C virus genotype 1a, H77 …, UniProt P27958 384-661, T526A)
T1 construct: HCV envelope glycoprotein E2, residues 384-661, HCV genotype 1a H77 strain, single site mutant of E2-16Fc; Same construct as m1 with one substitution; source: Huh7, transiently transfected, secreted into the cell culture medium (supernatant)

[2] = molecular target: T2, E2-16Fc Y527A (Hepatitis C virus genotype 1a, H77 …, UniProt P27958 384-661, Y527A)
T2 construct: HCV envelope glycoprotein E2, residues 384-661, HCV genotype 1a H77 strain, single site mutant of E2-16Fc; Same construct as m1 with one substitution; source: Huh7, transiently transfected, secreted into the cell culture medium (supernatant)

[3] = molecular target: T3, E2-16Fc W529A (Hepatitis C virus genotype 1a, H77 …, UniProt P27958 384-661, W529A)
T3 construct: HCV envelope glycoprotein E2, residues 384-661, HCV genotype 1a H77 strain, single site mutant of E2-16Fc; Same construct as m1 with one substitution; source: Huh7, transiently transfected, secreted into the cell culture medium (supernatant)

B1: CD81-Luc (large extracellular domain of human CD81, residues 113-201, fused with gaussia luciferase) (domain or fragment, UniProt P60033 113-201, looked up)
chain: FVNKDQIAKDVKQFYDQALQQAVVDDDANNAKAVVKTFHETLDCCGSSTLTALTTSVLKNNLCPSGSNIISNLFKEDCHQKIDDLFSGK
notes: human CD81, large extracellular domain, residues 113-201; source: Huh7, transiently transfected, secreted into the cell culture medium (supernatant)
[1]
  percent reduction of binding compared to the wild-type E2-16Fc: 83.1%
[2]
  percent reduction of binding compared to the wild-type E2-16Fc: 98.4%
[3]
  percent reduction of binding compared to the wild-type E2-16Fc: 99.2%
